We go through one molecule from patent US20140206628A1.

Conditions in all cases: remark: other sources report otherwise
In assay [1] the target is A/AA/Marton/43 (H1N1).
Assay [2] addresses A/Beijing/262/95 (H1N1).
Assay [3] has as its target A/Solomon Islands/3/06 (H1N1).
For assay [4], the target named is A/USSR/90/77 (H1N1).

B1: HB80.3 ([change], [change], [change], [change], Delta54-95) (designed binder)
chain: MASTRGSGRPWGFSENLAFELALSFTNKDTPDRWAKVAQYVSGRTPEEVKKHYE
On to B1, for which the Kd in assay [1] was 10 nM; in assay [2] it was 10 nM; in assay [3], 100 nM; in assay [4], 10 nM.
